Results on 29 molecules are retold here after publication PMC9352680, “A comprehensive thermodynamic model for RNA binding by the Saccharomyces cerevisiae Pumilio protein PUF4”.

The labels stand for the following.
T1: PUF4 RNA-binding domain (Saccharomyces cerevisiae, UniProt P25339 537-888)
T1 sequence: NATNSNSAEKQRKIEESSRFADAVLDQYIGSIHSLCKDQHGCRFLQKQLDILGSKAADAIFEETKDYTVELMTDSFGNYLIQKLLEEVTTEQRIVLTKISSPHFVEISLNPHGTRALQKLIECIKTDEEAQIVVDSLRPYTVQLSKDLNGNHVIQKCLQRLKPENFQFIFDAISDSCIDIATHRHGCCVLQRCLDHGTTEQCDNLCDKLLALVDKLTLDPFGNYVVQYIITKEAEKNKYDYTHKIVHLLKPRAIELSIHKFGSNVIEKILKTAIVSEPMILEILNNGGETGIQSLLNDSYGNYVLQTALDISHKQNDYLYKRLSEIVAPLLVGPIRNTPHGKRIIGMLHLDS

B1: Ia_S4_P5E.1_K5.1_C5.1_H5.1_A5.1_F5.1_[T9C]_T5.1 (ssRNA)
RNA: UUUGACAACUGAUCGUUCUUUCUUGUAUUAUCAUUCUUUCUCGAUCAGUUGUCUUU
B2: Ia_S4_P5E.1_K5.1_C5.1_H5.1_A5.1_F5.1_[T9A]_T5.1 (ssRNA)
RNA: UUUGACAACUGAUCGUUCUUUCUUGUAUUAUAAUUCUUUCUCGAUCAGUUGUCUUU
B3: Ic_S4_P5E.1_K5.1_C5.1_H5.1_A5.1_F5.1_[A10G]_T5.1 (ssRNA)
RNA: UUUGACAACUGAUCGUUCUUUCUUGUAUUAUUGUUCUUUCUCGAUCAGUUGUCUUU
B4: Ia_S4_P5E.1_K5.1_C5.1_H5.1_[A4C]_A5.1_F5.1_T5.1 (ssRNA)
RNA: UUUGACAACUGAUCGUUCUUUCUUGUCUUAUUAUUCUUUCUCGAUCAGUUGUCUUU
B5: Ia_S4_P5E.1_K5.1_C5.1_H5.1_[T1A]_A5.1_F5.1_T5.1 (ssRNA)
RNA: UUUGACAACUGAUCGUUCUUUCUAGUAUUAUUAUUCUUUCUCGAUCAGUUGUCUUU

The target of the data set is T1, PUF4 RNA-binding domain. Description: Mg; RNA-MaP; 20 mM Na-HEPES pH 7.4, 30 mM KOAc, 0.75 mM MgCl2, 0.1% Tween-20, 5% glycerol, 0.1 mg/mL BSA, 2 mM DTT; 25 C; 0.0125-409.6 nM protein. Particulars: tags: N-His6-TEV cleaved; C-SNAP kept, Cy3B-labelled; label: tethered on chip by stalled RNA polymerase.
As for B1, the Kd (as a rule, the equilibrium constant for the complex coming apart) was 72 nM. In other words, the double-digit nanomolar range. Take B2: the Kd is 2.07 nM. As for B3, the figure is 11.8 nM; as for B4, 13.1 nM; as for B5, above 2300 nM.

On to UCUCUUUGUACACGUCUCUU (ssRNA) [Ic_S1_P3E.1_K3.1_C3.1_H3.1_A3.1_[T5C]_F3.1_[T7C]_[A8G]_T3.1], for which the Kd turned out to be 27.2 nM. UCUCUUUGUACGUUUCUCUU (ssRNA) [Ic_S1_P3E.1_K3.1_C3.1_H3.1_A3.1_[T5C]_[A6G]_F3.1_[A8T]_T3.1] showed a Kd of 40.7 nM. As for UCUCUUUGUACGUGUCUCUU (ssRNA) [Ic_S1_P3E.1_K3.1_C3.1_H3.1_A3.1_[T5C]_[A6G]_F3.1_[A8G]_T3.1], the figure is 492 nM. In the case of UCUCUUUGUACGAAUCUCUU (ssRNA) [Ic_S1_P3E.1_K3.1_C3.1_H3.1_A3.1_[T5C]_[A6G]_F3.1_[T7A]_T3.1], binding was characterised by a dissociation constant (Kd) of 891 nM. Against the preceding molecule, the Kd is about 1.8-fold higher. The result for UCUCUUUGUAGUACUCUCUU (ssRNA) [Ic_S1_P3E.1_K3.1_C3.1_H3.1_A3.1_[T5G]_[A6T]_F3.1_[T7A]_[A8C]_T3.1] reads 1210 nM. As for UCUCUUUGUACGGUUCUCUU (ssRNA) [Ic_S1_P3E.1_K3.1_C3.1_H3.1_A3.1_[T5C]_[A6G]_F3.1_[T7G]_[A8T]_T3.1], the figure is 385 nM. For UCUCUUUGUACCUUUCUCUU (ssRNA) [Ic_S1_P3E.1_K3.1_C3.1_H3.1_A3.1_[T5C]_[A6C]_F3.1_[A8T]_T3.1], the Kd stood at 34 nM. As for UCUCUUUGUACACUUCUCUU (ssRNA) [Ic_S1_P3E.1_K3.1_C3.1_H3.1_A3.1_[T5C]_F3.1_[T7C]_[A8T]_T3.1], the figure is 9.72 nM; as for UCUCUUUGUACUAUUCUCUU (ssRNA) [Ic_S1_P3E.1_K3.1_C3.1_H3.1_A3.1_[T5C]_[A6T]_F3.1_[T7A]_[A8T]_T3.1], 9.51 nM. The result for UCUCUUUGUACUAGUCUCUU (ssRNA) [Ic_S1_P3E.1_K3.1_C3.1_H3.1_A3.1_[T5C]_[A6T]_F3.1_[T7A]_[A8G]_T3.1] reads 524 nM; that for UCUCUUUGUAAGCCUCUCUU (ssRNA) [Ic_S1_P3E.1_K3.1_C3.1_H3.1_A3.1_[T5A]_[A6G]_F3.1_[T7C]_[A8C]_T3.1], 1550 nM; that for UCUCUUUGUACGCAUCUCUU (ssRNA) [Ic_S1_P3E.1_K3.1_C3.1_H3.1_A3.1_[T5C]_[A6G]_F3.1_[T7C]_T3.1], 872 nM.

Take UCUCUUUGUAGUCGUCUCUU (ssRNA) [Ic_S1_P3E.1_K3.1_C3.1_H3.1_A3.1_[T5G]_[A6T]_F3.1_[T7C]_[A8G]_T3.1]: the Kd was above 2300 nM. The result for UCUCUUUGUACUAAUCUCUU (ssRNA) [Ic_S1_P3E.1_K3.1_C3.1_H3.1_A3.1_[T5C]_[A6T]_F3.1_[T7A]_T3.1] reads 77.4 nM. As for UCUCUUUGUAGUCCUCUCUU (ssRNA) [Ic_S1_P3E.1_K3.1_C3.1_H3.1_A3.1_[T5G]_[A6T]_F3.1_[T7C]_[A8C]_T3.1], the figure is 2000 nM. As for UCUCUUUGUACGGCUCUCUU (ssRNA) [Ic_S1_P3E.1_K3.1_C3.1_H3.1_A3.1_[T5C]_[A6G]_F3.1_[T7G]_[A8C]_T3.1], the figure is 1730 nM. For the molecule UCUCUUUGUAGUAUUCUCUU (ssRNA) [Ic_S1_P3E.1_K3.1_C3.1_H3.1_A3.1_[T5G]_[A6T]_F3.1_[T7A]_[A8T]_T3.1], the Kd is 86.2 nM.

Molecule UCUCUUUGUACGCCUCUCUU (ssRNA) [Ic_S1_P3E.1_K3.1_C3.1_H3.1_A3.1_[T5C]_[A6G]_F3.1_[T7C]_[A8C]_T3.1] came in with a Kd of 719 nM. The result for UCUCUUUGUAGUCAUCUCUU (ssRNA) [Ic_S1_P3E.1_K3.1_C3.1_H3.1_A3.1_[T5G]_[A6T]_F3.1_[T7C]_T3.1] reads 2020 nM; that for UCUCUUUGUAGUGCUCUCUU (ssRNA) [Ic_S1_P3E.1_K3.1_C3.1_H3.1_A3.1_[T5G]_[A6T]_F3.1_[T7G]_[A8C]_T3.1], above 2300 nM.

In turn, UCUCUUUGUACUACUCUCUU (ssRNA) [Ic_S1_P3E.1_K3.1_C3.1_H3.1_A3.1_[T5C]_[A6T]_F3.1_[T7A]_[A8C]_T3.1] registered an equilibrium dissociation constant (Kd) of 349 nM. The result for UCUCUUUGUACUUUUCUCUU (ssRNA) [Ic_S1_P3E.1_K3.1_C3.1_H3.1_A3.1_[T5C]_[A6T]_F3.1_[A8T]_T3.1] reads 19.5 nM; that for UCUCUUUGUACAAUUCUCUU (ssRNA) [Ic_S1_P3E.1_K3.1_C3.1_H3.1_A3.1_[T5C]_F3.1_[T7A]_[A8T]_T3.1], 11.1 nM. As for UCUCUUUGUACGCUUCUCUU (ssRNA) [Ic_S1_P3E.1_K3.1_C3.1_H3.1_A3.1_[T5C]_[A6G]_F3.1_[T7C]_[A8T]_T3.1], the figure is 62.7 nM.
